Target: the molecule itself
Assay: SEC-MALS

B1: untagged full-length human 14-3-3γ (natural protein, UniProt P61981 1-247, looked up)
chain: MVDREQLVQKARLAEQAERYDDMAAAMKNVTELNEPLSNEERNLLSVAYKNVVGARRSSWRVISSIEQKTSADGNEKKIEMVRAYREKIEKELEAVCQDVLSLLDNYLIKNCSETQYESKVFYLKMKGDYYRYLAEVATGEKRATVVESSEKAYSEAHEISKEHMQPTHPIRLGLALNYSVFYYEIQNAPEQACHLAKTAFDDAIAELDTLNEDSYKDSTLIMQLLRDNLTLWTSDQQDDDGGEGNN
notes: human 14-3-3 protein gamma, full length, untagged
stoichiometry N: 2

— PMC7863765 (Journal of Molecular Biology, 2021)
